Measured values reported in patent US20110135636A1 (SYMPHOGEN A S, published 2011).

B1: antibody 1030 (antibody, human IgG1, kappa, V domains shown)
VH: EVQLVESGGGLVKPGGSLKLSCAASGFTFSSYALSWVRQTPERRLEWVASISGVGSTYFPDSVKGRFTMSRDNARNILYLQMSSLRSEDTAMYYCARGSDGYFYAMDYWGQGTSVTVSS
VL: DIVLTQSPASLAVSLGQRATISCRASKSVSTSGYSFMHWYQLKPGQPPKLLIYLASNLESGVPARFSGSGSGTDFTLNIHPVEEEDAATYYCQHSREFPLTFGGGTKLEIKR
notes: Chimeric IgG1 kappa
B2: antibody 1208 (antibody, human IgG1, kappa, V domains shown)
VH: EVQLVESGGGLVKPGGSLKLSCAASGFAFSSYDMSWVRQTPEKRLEWVAYIGSGDDNTHYPDSVKGRFTISRHNAKNTLYLQMSSLKSEDTAMYYCARQKYGNYGDTMDYWGQGTSVTVSS
VL: DVVMTQTPLSLPVSLGDQASISCRSSQSLVHSNGNTYLHWYLQKPGQSPKLLIYKVSNRFSGVPDRFSGSGSGTDFTLKISRVEAEDLGVYFCSQSTHVPTFGGGTKLEIKR
notes: Chimeric IgG1 kappa; also called clone 1208
B3: antibody 1320 (antibody, human IgG1, kappa, V domains shown)
VH: QVQLQQPGAELVKPGASMKLSCKASGYTFTNYWMHWVKQRPGQGLEWIGEINPSNGRTNYNEKFKSKATLTVDKSSSTAYMQLSSLTSEDSGVYYCAKGGNYYDYDWDYWGQGTTLTVSS
VL: DIQMTQTTSSLSASLGDRVTISCSASQDISNYLNWYQQKPDGTVKLLIYHTSTLHSGVPSRFSGSGSGTDYSLTISNLEPEDIATYYCQQYSKLPWTFGGGTKLEIKR
notes: Chimeric IgG1 kappa
B4: antibody 992 (antibody, human IgG1, kappa, V domains shown)
VH: EVQLQQPGSELVRPGASVKLSCKASGYTFTSYWMHWVKQRPGQGLEWIGNIYPGSRSTNYDEKFKSKATLTVDTSSSTAYMQLSSLTSEDSAVYYCTRNGDYYVSSGDAMDYWGQGTSVTVSS
VL: DIQMTQTTSSLSASLGDRVTISCRTSQDIGNYLNWYQQKPDGTVKLLIYYTSRLHSGVPSRFSGSGSGTDFSLTINNVEQEDVATYFCQHYNTVPPTFGGGTKLEIKR
notes: Chimeric mouse/human IgG1 kappa; the VL entry includes the human kappa constant region
B5: antibody 1024 (antibody, human IgG1, kappa, V domains shown)
VH: QVQLQQPGAELVEPGGSVKLSCKASGYTFTSHWMHWVKQRPGQGLEWIGEINPSSGRNNYNEKFKSKATLTVDKSSSTAYMQFSSLTSEDSAVYYCVRYYGYDEAMDYWGQGTSVTVSS
VL: DIVMTQAAFSNPVTLGTSASISCRSSKSLLHSNGITYLYWYLQKPGQSPQLLIYQMSNLASGVPDRFSSSGSGTDFTLRISRVEAEDVGVYYCAQNLELPYTFGGGTKLEIKR
notes: Chimeric IgG1 kappa

Target: T1, recombinant human EGFR extracellular domain with 6xHis (human, UniProt P00533 25-645)
T1 construct: In-house produced; also called 6xHis EGFR ECD; soluble human EGFR ECD; not shown: 6xHis tag
Test: SPR competition, competitor 992 corr
Procedure: (§1) SPR analysis was performed on a Biacore 3000 machine containing four flow cells. A CM5 Biacore chip was conjugated with 10,000 Resonance units (Ru) polyclonal anti-His antibody to flow cells 1-4 according to the manufacturer's instructions. […] Immediately after antigen injection the maximal binding of the Anti-EGFR mAb without competition was established in each flow cell during a reference run. Briefly 5 μl antibody at a concentration of 40 μg/ml was injected over all flow cells with captured EGFR followed by stripping of the antibody/antigen complex with a low pH acid wash (10 sec. contact time with 10 mM Glycine-HCl, pH2). After the determination of Anti-EGFR antibody maximal binding to each flow cell, a competition run was performed during the same Biacore cycle. Flow cells were first saturated with EGFR ECD antigen followed by injection of different reference antibodies or Anti-EGFR antibodies into separate flow cells using the same antigen saturating conditions as outlined above. This step was immediately followed by a second injection of Anti-EGFR antibody over the flow cell saturated with EGFR antigen and competition antibody to minimize the dissociation of either antigen or blocking antibody. Then the antibody/antigen complexes were stripped off with a low pH acid wash (10 sec. contact time with 10 mM Glycine-HCl, pH 2) and the whole cycle beginning with the reference run was repeated with a new Anti-EGFR antibody. The degree of inhibition of tested Anti-EGFR antibodies were determined by comparing the Ru max value of the individual Anti-EGFR antibody before and after competition by introduction of report points recorded two seconds before and after injection of each sample.

Row | % inhibition [%] | Binder
1 | -3 | B1
2 | 100 | B2
3 | -27 | B3
4 | 96 | B4
5 | -58 | B5

Target: T1, recombinant human EGFR extracellular …
Test: SPR competition, competitor Ab-5
Procedure: as §1

Row | % inhibition [%] | Binder
6 | 104 | B1
7 | 66 | B2
8 | -3 | B3
9 | 1 | B4
10 | 0 | B5

Target: T1, recombinant human EGFR extracellular …
Test: SPR competition, competitor 1284
Procedure: as §1

Row | % inhibition [%] | Binder
11 | 32 | B1
12 | 4 | B2
13 | 5 | B3
14 | 6 | B4
15 | -2 | B5

Target: T1, recombinant human EGFR extracellular …
Test: SPR competition, competitor 1344
Procedure: as §1

Row | % inhibition [%] | Binder
16 | 24 | B1
17 | 7 | B2
18 | 2 | B3
19 | 9 | B4
20 | 1 | B5

Target: T1, recombinant human EGFR extracellular …
Test: SPR competition, competitor Erbitux
Procedure: as §1

Row | % inhibition [%] | Binder
21 | -1 | B1
22 | 18 | B2
23 | 2 | B3
24 | 90 | B4
25 | 104 | B5

Target: T1, recombinant human EGFR extracellular …
Test: SPR competition, competitor 1024
Procedure: as §1

Row | % inhibition [%] | Binder
26 | -1 | B1
27 | 3 | B2
28 | 93 | B3
29 | -55 | B4
30 | 96 | B5

Target: T1, recombinant human EGFR extracellular …
Test: SPR competition, competitor Ab-1
Procedure: as §1

Row | % inhibition [%] | Binder
31 | 98 | B1
32 | 37 | B2
33 | 3 | B3
34 | 99 | B4
35 | 6 | B5

Target: T1, recombinant human EGFR extracellular …
Test: SPR competition, competitor Ab-10
Procedure: as §1

Row | % inhibition [%] | Binder
36 | 84 | B1
37 | 32 | B2
38 | -2 | B3
39 | -4 | B4
40 | -5 | B5

Target: T1, recombinant human EGFR extracellular …
Test: SPR competition, competitor 1208
Procedure: as §1

Row | % inhibition [%] | Binder
41 | 112 | B1
42 | 78 | B2
43 | -3 | B3
44 | 109 | B4
45 | -7 | B5

Target: T1, recombinant human EGFR extracellular …
Test: SPR competition, competitor Ab-11
Procedure: as §1

Row | % inhibition [%] | Binder
46 | -5 | B1
47 | 4 | B2
48 | -6 | B3
49 | -3 | B4
50 | -13 | B5

Target: T1, recombinant human EGFR extracellular …
Test: SPR competition, competitor 1320
Procedure: as §1

Row | % inhibition [%] | Binder
51 | 4 | B1
52 | 30 | B2
53 | 97 | B3
54 | -38 | B4
55 | 86 | B5

Target: T1, recombinant human EGFR extracellular …
Test: SPR competition, competitor 1030corr
Procedure: as §1

Row | % inhibition [%] | Binder
56 | 89 | B1
57 | 27 | B2
58 | 0 | B3
59 | -18 | B4
60 | 3 | B5

Target: T1, recombinant human EGFR extracellular …
Test: SPR competition, competitor ICR10
Procedure: as §1

Row | % inhibition [%] | Binder
61 | 54 | B1
62 | 5 | B2
63 | -3 | B3
64 | -4 | B4
65 | -3 | B5

Target: T1, recombinant human EGFR extracellular …
Test: SPR competition, competitor 1277
Procedure: as §1

Row | % inhibition [%] | Binder
66 | 103 | B1
67 | 40 | B2
68 | 0 | B3
69 | 110 | B4
70 | -1 | B5

Target: T1, recombinant human EGFR extracellular …
Test: SPR competition, competitor 1254
Procedure: as §1

Row | % inhibition [%] | Binder
71 | 107 | B1
72 | 33 | B2
73 | 3 | B3
74 | 128 | B4
75 | 5 | B5

Target: T1, recombinant human EGFR extracellular …
Test: SPR competition, competitor Erbitux
Remark: another data set of the same source
Procedure: as §1

Row | % inhibition [%] | Binder
76 | -1 | B1
77 | 18 | B2
78 | 2 | B3
79 | 90 | B4
80 | 104 | B5

Target: T1, recombinant human EGFR extracellular …
Test: SPR competition, competitor Ab-3
Procedure: as §1

Row | % inhibition [%] | Binder
81 | 6 | B1
82 | 5 | B2
83 | 2 | B3
84 | 7 | B4
85 | 0 | B5

Target: T1, recombinant human EGFR extracellular …
Test: SPR competition, competitor Vectibix
Procedure: as §1

Row | % inhibition [%] | Binder
86 | 17 | B1
87 | 25 | B2
88 | 14 | B3
89 | 125 | B4
90 | 82 | B5

Target: T1, recombinant human EGFR extracellular …
Test: SPR competition, competitor 1260
Procedure: as §1

Row | % inhibition [%] | Binder
91 | 16 | B1
92 | 4 | B2
93 | -4 | B3
94 | -10 | B4
95 | 35 | B5

Target: T1, recombinant human EGFR extracellular …
Test: SPR competition, competitor 1347
Procedure: as §1

Row | % inhibition [%] | Binder
96 | 6 | B1
97 | 4 | B2
98 | 5 | B3
99 | 7 | B4
100 | 2 | B5

Target: T1, recombinant human EGFR extracellular …
Test: SPR competition, competitor 1257
Procedure: as §1

Row | % inhibition [%] | Binder
101 | 5 | B1
102 | 9 | B2
103 | 2 | B3
104 | 16 | B4
105 | 22 | B5

Target: T1, recombinant human EGFR extracellular …
Test: SPR competition, competitor 1261
Procedure: as §1

Row | % inhibition [%] | Binder
106 | 8 | B1
107 | 13 | B2
108 | 4 | B3
109 | -13 | B4
110 | -27 | B5

Target: T1, recombinant human EGFR extracellular …
Test: SPR competition, competitor Vectibix
Remark: another data set of the same source
Procedure: as §1

Row | % inhibition [%] | Binder
111 | 16 | B1
112 | 29 | B2
113 | 6 | B3
114 | 106 | B4
115 | 102 | B5
